The results in this text go back to publication PMC10850148.

A word on the Kd: it is the concentration at which binding is half-saturated. A high value points to a looser complex.

Assay [1] deals with AtGATA18 ZnF domain (Arabidopsis thaliana) (UniProt Q8LC79). Kind of assay: ITC. On the technique in general: In ITC the heat of successive injections is recorded.
Assay [2] concerns the target AtSPL5 ZnF domain (residues 60-124) (Arabidopsis thaliana) (UniProt Q9S758). Kind of assay: ITC.
Assay [3] has as its target MqGATA triple mutant (Y-R, M-K, N-R) (Macrosteles quadrilineatus). Put plainly: ITC.
The target of another assay is AtGATA18 ZnF domain (UniProt Q8LC79). Kind of assay: ITC.
For assay [4], the target named is AtSPL5 ZnF domain (residues 60-124) (UniProt Q9S758). Kind of assay: ITC.
Assay [5] concerns the target AtSPL5 ZnF domain (residues 60-124) (Arabidopsis thaliana) (UniProt Q9S758). Kind of assay: ITC; MicroCal PEAQ-ITC, 16 °C, 20 mM Tris-HCl pH 7.5, 150 mM NaCl; 660-700 μM protein injected into 40-50 μM protein in the cell; SAP05 titrated to the transcription factor; one-site model.
In assay [6] the target is AtGATA18 ZnF domain (Arabidopsis thaliana) (UniProt Q8LC79). The assay is described as above.
The target in assay [7] is T1, OY-M SAP05 (residues 33-135).
T1 chain: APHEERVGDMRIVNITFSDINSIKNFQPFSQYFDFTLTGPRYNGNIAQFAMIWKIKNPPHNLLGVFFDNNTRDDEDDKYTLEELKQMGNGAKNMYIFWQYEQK
Kind of assay: ITC. Particulars: chain shown with the change.

Residue numbers refer to the chain shown, from its start. In names and notes the source's numbering stands.

On to “OY-M SAP05 (residues 33-135) (domain or fragment)”, for which the Kd in assay [1] is 0.14 µM; in assay [2], 0.42 µM; in assay [3], 0.9 µM.
For the molecule OY-M SAP05 (residues 33-135) D106A, in the assay with AtGATA18 ZnF domain, the Kd worked out at 4 µM.
As for OY-M SAP05 (residues 33-135) D108A, the Kd with AtGATA18 ZnF domain turned out to be 5.4 µM.
As to OY-M SAP05 (residues 33-135) E107A, the Kd with AtGATA18 ZnF domain turned out to be 1.3 µM; in assay [4], 6.3 µM.
Turning to OY-M SAP05 (residues 33-135) I84A, in the assay with AtGATA18 ZnF domain, the Kd is more than 100 µM.
Turning to OY-M SAP05 E107A (domain or fragment), the fold decrease of binding affinity against wild-type SAP05 in assay [5] was 15 fold.
On to “WBDLa SAP05 double mutant M86I-K70T (natural protein)”, for which the dissociation constant (Kd) in assay [6] stood at 2.7 µM; in assay [5] it was 2.6 µM.
On to “binary complex AtRPN10-SAP05 (from UniProt P55034 33-135; P55034 1-193)”, for which the Kd in assay [1] came to 0.1 µM; in assay [2] it was 0.37 µM.

B1: AtSPL5 ZnF domain (residues 60-124), Q9S758 S108A (protein)
chain: SRLCQVDRCTVNLTEAKQYYRRHRVCEVHAKASAATVAGVRQRFCQQCARFHELPEFDEAKRSCR
Consider B1, for which the dissociation constant (Kd) in assay [7] stood at 1.4 µM.

B2: AtGATA18 ZnF domain, Q8LC79 R182A (protein)
chain: GDSLLARRCANCDTTSTPLWRNGPRGPKSLCNACGIAFKKEERRTTAATGNT
On to B2, for which, in assay [7], the equilibrium dissociation constant (Kd) came out at 4.4 µM.

B3: AtGATA18 ZnF domain, Q8LC79 R188A (protein)
chain: B2 chain with A37R, R43A
Consider B3, for which the Kd in assay [7] is 0.5 µM.

B4: AtGATA18 ZnF domain, Q8LC79 K185A (protein)
chain: B2 chain with A37R, K40A
In assay [7], B4 returned a Kd of 0.58 µM.

B5: AtGATA18 ZnF domain, Q8LC79 I181A (protein)
chain: B2 chain with I36A, A37R
Consider B5, for which the Kd in assay [7] was found to be 5 µM.
